Target: T1, IGF-I F49A (G1S-A70V background) displayed on phage (human; bacteriophage M13)
T1 chain: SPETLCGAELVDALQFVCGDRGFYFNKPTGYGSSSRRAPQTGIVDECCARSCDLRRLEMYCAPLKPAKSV
Test: competitive phage ELISA; IC50mut/IC50 G1S-A70V
Conditions: remark: other sources report otherwise

B1: human IGFBP-1, P08833 26-259 (protein, UniProt P08833 26-259, looked up)
chain: APWQCAPCSAEKLALCPPVSASCSEVTRSAGCGCCPMCALPLGAACGVATARCARGLSCRALPGEQQPLHALTRGQGACVQESDASAPHAAEAGSPESPESTEITEEELLDNFHLMAPSEEDHSILWDAISTYDGSKALHVTNIKKWKEPCRIELYRVVESLAKAQETSGEEISKFYLPNCNKNGFYHSRQCETSMDGEAGLCWCVYPWNGKRIPGSPEIRGDPNCQIYFNVQN
B1 gave a relative IC50 greater than 100.

From US20020160955A1
